Earlier results as cited in PMC4074225.

Molecular target: PCNA (Homo sapiens) (UniProt P12004)
Assay: SPR

UniProt P12004, sequence (P12004 whole entry): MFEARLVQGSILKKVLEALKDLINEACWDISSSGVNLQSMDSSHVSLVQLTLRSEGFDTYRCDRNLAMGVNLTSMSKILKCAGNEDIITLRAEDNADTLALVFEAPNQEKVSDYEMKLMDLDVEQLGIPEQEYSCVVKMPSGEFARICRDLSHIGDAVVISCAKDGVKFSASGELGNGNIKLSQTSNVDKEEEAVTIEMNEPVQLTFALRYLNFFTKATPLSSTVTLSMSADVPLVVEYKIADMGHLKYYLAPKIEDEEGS

Kd: 400 nM
Substance: DNA polymerase eta 694-713 (from UniProt Q9Y253)
